Columns and labels:
[1] = Transition midpoint (Tm) of dAbs, thermal stability (DSC); type: physicochemical
Method: “Transition midpoint” or “Tm” is the temperature where 50% of the single variable domain is in its native conformation and the other 50% is denatured. In an embodiment, the single variable domain has a high Tm. In particular the Tm is greater than or equal to about 66° C. The thermal stability of a single variable domain, including the Tm, may be determined using Differential Scanning calorimetry (DSC).
For these Examples, high Tm dAb™ refers to a dAb™ with a Tm of 66° C., and low Tm dAb™ refers to a dAb™ with a Tm of 56° C.

[2] = Recovery of DOM101 from the large intestine after intra-colonic administration; type: in vivo, Han Wistar rats; conditions: 1 mg DOM101 intra-colonic
Method: (§1) Intestinal samples were homogenised using the GentleMACS™ Dissociator in lysis buffer containing detergent and protease inhibitors. Samples were screened for DOM101 using a TNFR1-specific MSD™ assay. In brief, MSD plates were coated with TNFR1-Fc. Plates were washed and blocked with bovine serum albumin. Tissue samples were diluted and added to the plate, along with a standard curve of dAb™, then incubated at room temperature to allow binding. Plates were washed and a sulfo-tag-conjugated anti-Vh antibody was added to the wells. After incubation, the plate was washed and incubated with MSD read buffer. The resulting electrochemiluminescence signal was read on a Sector Imager 6000.
Han Wistar rats were dosed with 1 mg DOM101 in the presence or absence of CM, to determine if camostat mesylate also preserved the dAb™ in the large intestinal tract. In brief, rats were anaesthetised by isoflurane anaesthetic, a midline abdominal incision made to facilitate location of the colon and 500 ul dose of the dose formulations injected directly into the colon. Following dosing, the abdominal incisions were loosely closed and the rats maintained under isoflurane anaesthesia and monitored for the duration of the experiment. […]
Samples were homogenised and screened as stated in Example 4. Results are expressed as nanograms per gram of tissue in FIG. 7.

[3] = Recovery of DOM101 from gut tissue and plasma after intra-duodenal administration, TNFR1-specific MSD assay; type: in vivo, Han Wistar rats
Method: Han Wistar rats were dosed with 1 mg DOM101 in the presence or absence of 100 mg CM, to determine if CM preserved the dAb™ in the gastrointestinal tract. Rats were briefly anaesthetised by isoflurane anaesthetic and a midline abdominal incision made to facilitate location of the duodenum for direct intra-duodenal injection (500 μl) of the dose formulations. Following dosing, the abdominal incisions were closed and the rats allowed to recover prior to their return to study cages. Direct dosing into the duodenum bypassed the acidic conditions of the gastric juices in the stomach and allowed for direct analysis of pharmacokinetics in the intestinal tract.
Animals were culled at the following time-points: 0.5, 1.5, 3, 5, 7 and 18 hours (three animals per group).
Blood samples were taken and the intestinal tract dissected out and divided into its constituent parts: duodenum (×2), jejunum (×6), ileum, caecum, colon (×2), rectum.
as §1
Results are expressed as nanograms per gram of tissue in FIG. 6.

[4] = 1 mg DOM101 intra-duodenal, absence of CM

B1: DOM6: domain antibody (single variable domain), Vh framework, SEQ ID NO: 4 (protein)
VHH: EVQLLESGGGLVQPGGSLRLSCAASGFTFSEGTMWWVRQAPGKGLEWVSAILAAGSNTYYADSVKGRFTISRDNSKNTLYLQMNSLRAEDTAVYYCAKKRQERDGFDYWGQGTLVTVSS
modifications: Amino acid sequence identified using molecular biology techniques.
With B1 the “Tm (° C.)” value [1] was 55.8 °C.

B2: DOM2: domain antibody (single variable domain), Vh framework, SEQ ID NO: 2 (protein)
VHH: EVQLLESGGGLVQPGGSLRLSCAASGFTFRNFGMGWVRQAPGKGLEWVSWIISSGTETYYADSVKGRFTISRDNSKNTLYLQMNSLRAEDTAVYYCAKSLGRFDYWGQGTLVTVSS
modifications: Amino acid sequence identified using molecular biology techniques.
With B2 the “Tm (° C.)” value [1] was 55.9 °C.

B3: DOM7: domain antibody (single variable domain), Vh framework, SEQ ID NO: 5 (protein)
VHH: EVQLLESGGGLVQPGGSLRLSCAASGSTFTDDRMWWVRQAPGKGLEWVSAIQPDGHTTYYADSVKGRFTISRDNSKNTLYLQMNSLRAEDTAVYYCAEQDVKGSSSFDYWGQGTLVTVSS
modifications: Amino acid sequence identified using molecular biology techniques.
In the case of B3, the “Tm (° C.)” value [1] is reported as 50.6 °C.

B4: DOM101: TNFR1 specific dAb, SEQ ID NO: 6 (protein)
VHH: EVQLLESGGGLVQPGGSLRLSCAASGFTFAHETMVWVRQAPGKGLEWVSHIPPDGQDPFYADSVKGRFTISRDNSKNTLYLQMNSLRAEDTAVYHCALLPKRGPWFDYWGQGTLVTVSS
modifications: Amino acid sequence identified using molecular biology techniques.
In the case of B4, the “dAb levels at 3 h in the absence of CM compared with the two CM groups (in words)” value ([2]; absence of CM, particularly caecum and rectum) is reported as “substantially reduced”, the “dAb levels in caecum, colon and rectum at 0.5 h (in words)” value ([2]; presence or absence of CM, rectum except 10 mg camostat group) is reported as “High levels” and the “amount of dAb detectable in the ileum (in words)” value [3, 4] is reported as “small amounts”. The “time at which dAb was detectable in the duodenum” value [3, 4] was 0.5 h, the “time up to which dAb was detectable in the jejunum” value [3, 4] was “up to 1.5 h” and the “time after dosing at which dAb was detectable throughout the GI tract” value ([3]; 1 mg DOM101 intra-duodenal, presence of 100 mg CM) was 7 h. The level in plasma ([3]; after intra-duodenal dosing, data not shown) was “less than 0.1 % of the total dose”.

B5: DOM3: domain antibody (single variable domain), Vh framework, SEQ ID NO: 3 (protein)
VHH: B4 VHH
modifications: Amino acid sequence identified using molecular biology techniques.
In the case of B5, the “Tm (° C.)” value [1] is reported as 65 °C.

B6: DOM1: domain antibody (single variable domain), Vκ framework, SEQ ID NO: 1 (antibody, V domains shown)
VL: DIQMTQSPSSLSASVGDRVTITCRASQDIYLNLDWYQQKPGKAPKLLINFGSELQSGVPSRFSGSGYGTDFTLTISSLQPEDFATYYCQPSFYFPYTFGQGTKVEIKR
modifications: Amino acid sequence identified using molecular biology techniques.
With B6 the “Tm (° C.)” value [1] was 55 °C.

Reference: patent publication US20150306058A1, “COMPOSITION COMPRISING A SINGLE VARIABLE DOMAIN AND CAMOSTAT MESYLATE (CM)” (Glaxo Group Limited, priority 2012, published 2015)
